Measurements taken from patent publication US5795718, “Detection of complementary nucleotide sequences” (Boehringer Mannheim Corporation).

Experiments:
[1] = target: T1, BamHI (UniProt P23940 P23940:1-213); experiment: cleavage_in_vitro; complementation rate 47.16 to 114.07 mAU/min after BamHI; 37 C, 40 min; settings: chain copies: 2; 24 bp duplex within circular ssDNA
T1 sequence: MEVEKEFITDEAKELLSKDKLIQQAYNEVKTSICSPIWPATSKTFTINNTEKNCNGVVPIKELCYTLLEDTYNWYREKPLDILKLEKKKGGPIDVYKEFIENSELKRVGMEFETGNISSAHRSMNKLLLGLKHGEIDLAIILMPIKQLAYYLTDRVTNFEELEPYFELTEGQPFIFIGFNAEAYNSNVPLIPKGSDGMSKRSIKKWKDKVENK
Excerpt: Complementation Activity of ED4-BP-1 Before and After Hybridization To Target Nucleic Acid In order to determine whether an ED-nucleic acid conjugate would be useful as a probe for the complementation activity detection of specific nucleic acid sequences, a conjugate was made of ED4 and BP-1. BP-1 is a single-stranded DNA oligonucleotide 24 bases long (SEQ ID NO:1, FIG. 2). The BP-1 sequence is complementary to the multiple cloning site region of the single-stranded DNA from the bacteriophage M13 mp18 (SEQ ID NO:2, FIG. 3). The viral DNA which is about 7250 bases in length was used as a model target nucleic acid. 2.4×10^-10 mol of ED4-BP-1 conjugate was incubated with and without 2.4×10^-9 mol of M13 mp18 DNA at 55° C. for 10 minutes. EA (20 U/test) and CPRG (2.0 mg/ml final) were then added and the mixture incubated at 37° C. for 4 minutes. The rate of increase in A$574$ was measured per minute between 4 and 6 minutes. The rates of complementation were 80.73 and 47.16 mAU/min without and with target M13 DNA mp18 DNA, respectively. Therefore complementation was reduced approximately 42% (FIG. 4) by hybridization with the target nucleic acid.
ED4-BP-1 was hybridized to M13 mp18 for 10 min at 55° C. […] The complementation efficiency of the ED4-BP-1/M13 mp18 complex before and after digestion with Bam HI was measured. The rate of increase in A574 was measured per minute as described above. […]

[2] = target: T2, Nuclease P1 (UniProt P24289 P24289:1-270); experiment: cleavage_in_vitro; 183.54 to 467.93 mAU/min after digestion; 20 mM Na acetate pH 5.3, 4 mM Mg acetate, 37 C; settings: tags: Bethesda Research Laboratories
[3] = target: T2, Nuclease P1; experiment: cleavage_in_vitro; almost 5-fold complementation increase; 20 mM Na acetate pH 5.3, 4 mM Mg acetate, 37 C, 16.5 min; settings: tags: Bethesda Research Laboratories
Description: ED4-$T20$ was incubated at 37° C. for 16.5 minutes with various amounts of nuclease, P1 (Bethesda Research Laboratories), in 20 mM Na acetate pH 5.3, 4 mM Mg acetate. At the end of the incubation period, EA and the substrate, CPRG, were added in 150 mM Na phosphate, pH 7.2, 400 mM NaCl, 10 mM EGTA, 0.05% Tween 20 and 10 mM methionine. The rate of product formation was measured at 574 nm in mAU/min. The results (FIG. 1) indicate that the complementation activity of ED4-$T20$ can be increased by digestion of the conjugate with nuclease. An almost 5-fold increase in activity is seen between the use of no nuclease and highest concentration […] conditions.

T2 sequence (P24289 whole entry, one chain of several): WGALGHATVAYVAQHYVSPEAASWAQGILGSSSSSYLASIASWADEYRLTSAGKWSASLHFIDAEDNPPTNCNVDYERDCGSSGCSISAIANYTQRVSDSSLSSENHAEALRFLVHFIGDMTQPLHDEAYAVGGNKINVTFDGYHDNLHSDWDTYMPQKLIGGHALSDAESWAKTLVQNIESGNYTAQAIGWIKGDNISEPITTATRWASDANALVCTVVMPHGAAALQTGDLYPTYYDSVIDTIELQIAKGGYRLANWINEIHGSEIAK

B1: ED4-BP-1/M13 mp18 hybrid (dsDNA)
DNA 1: GAGGATCCCCGGGTACCGAGCTCG
DNA 2: TGATTACGAATTCGAGCTCGGTACCCGGGGATCCTCTAGAGTCGA
modifications: 5' amine linker (3 or 6 carbons) SMCC-conjugated to ED4 peptide on BP-1
- activity [1]: 2.4 fold

Binder: GAGGATCCCCGGGTACCGAGCTCG (ssDNA, 5' amine linker SMCC-conjugated to ED4 peptide) [ED4-BP-1]
- activity [2]: ~2.5 fold

Binder: TTTTTTTTTTTTTTTTTTTT (ssDNA, 5' amine linker SMCC-conjugated to ED4 peptide) [ED4-T20]
- activity [3]: ~5 fold
